The results in this text go back to the nanobody polyreactivity screen of Harvey et al. (2022).

The data set can be described thus: yeast display, Sf9 membrane polyspecificity reagent, FACS + sequencing; frameworks hold sequencing errors. Summed up: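 Polyreactivity labels are assigned by the sorting gate from which each nanobody was recovered. The gates were low and high (top ~1%), set on anti-HA fluorescence for expression and streptavidin fluorescence for reagent binding. Before sorting, galactose-induced (36–48 hours) yeast display cells were stained for 1 hour at 4 °C with 10% biotinylated, detergent-solubilized Sf9 membrane reagent.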
As for “QVQLVESGGGLVQAGGSLRLSCAASGSTFGYYAMGWYRQAPGKERELVAAISYSGGSTYYADSVKGRFTISRDNAKNTVYLQMNSLKPAVTAVYYCAARFTRQMYYWGQGTQVTVSS”, the “polyreactivity (PSR sort gate)” value is on record as “high polyreactivity”.

Consider “QVQLVESGGGLVQAGGSLRLSCAASGSTFGYYAMGWYRQAPGKERELVAAITDSGGITHYADSVKGRFTISRDNAKNTVYLQMNSLKPEDTAVYYCYARYLGYGWFDYWGQGTQVTVSS”, for which the “polyreactivity (PSR sort gate)” value is reported as “low polyreactivity”. As to “QVQLVESGGGLVQAGGSLRLSCAASGSTFGYYAMGWYRQAPGKERELVAAITIRGDGTYYADSVKGRFTISRDNAKNTVYLQMNSLIPEDTAVYYCAAEDWLWFDYWGQGTQVTVSS”, the “polyreactivity (PSR sort gate)” value was “high polyreactivity”. For “QVQLVESGGGLVQAGGSLRLSCAASGSTFGYYARLWYRQAPGKERDLVAAISYSGGSTYYADSVKGRFTISRDNAKNTVYLQMNSLKPEDTAVYYCAARFTRQMYYWGQGTQVTVSS”, the “polyreactivity (PSR sort gate)” value is given as “high polyreactivity”.

Regarding “QVQLVESGGGLVQAGGSLRLSCAASGSTFGYYGMGWYRQAPGKERELLAAISTGGRTNYADSVKGRFTISRDNAKNTVYLQMNSLKPEDTAVYYCAADFLSPAYRPSWYRFDYWGQGTQVTVSS”, the “polyreactivity (PSR sort gate)” value is given as “low polyreactivity”.

Consider “QVQLVESGGGLVQAGGSLRLSCAASGSTFGYYTMGRYRQAPGKERELVAAITWSGGTTYYAESVKGRFTISRDNAKNPVYLQMNSLKPEDTAVYYCATRPWYYASPRTRFGSWGQGTQVTVSS”, for which the “polyreactivity (PSR sort gate)” value is “high polyreactivity”.

As to “QVQLVESGGGLVQAGGSLRLSCAASGSTFGYYTMGWYRQAPGKERELVAAISWGGGSTYYADSVKGRFTISRDNAKNTVYFQMNSLIPEDTAVYYCARTPVTSYKDDFYYWGQGTQVTVSS”, the “polyreactivity (PSR sort gate)” value was “low polyreactivity”. For the sequence “QVQLVESGGGLVQAGGSLRLSCAASGSTFGYYTMGWYRQAPGKERELVAAITWSGGSTYYADSVKGRFTISRDNAKNSVYLQINSLKPEDSSVYYCAADDYWTPFGYWGQGTQVTVSS”, the “polyreactivity (PSR sort gate)” value was “low polyreactivity”. As for “QVQLVESGGGLVQAGGSLRLSCAASGSTFHDYAMGLYRQAPGKERELVAAISNSGGSTYYADSVKGRFTISRDNAKNTVYLQMNSLKPEDTAVYYCAARKYVAGHKYIMNYWGQGTQVTVSS”, the “polyreactivity (PSR sort gate)” value is given as “low polyreactivity”. Under “QVQLVESGGGLVQAGGSLRLSCAASGSTFHGNAMGWYRQAPGKERELVAAISRSGGSTYYADSVKGRFTISRDNAKNTVYLQMNSLKPEDTAVYYCAADRPYYPLKYDYWGQGTQVTVSS” stands “high polyreactivity”; under “QVQLVESGGGLVQAGGSLRLSCAASGSTFHKYVMGWYRQAPGKEREFVAAISRRGTRTYYADSVKGRFTISRDNAKNTVYLQMNSLKPEDTAVYYCNVYYYRTYTHFLPGYEYWGQGTQVTVSS”, “high polyreactivity”. “QVQLVESGGGLVQAGGSLRLSCAASGSTFHLYAMGWYRKAPGKEREFVAAIRGRGGNTYADSVKGRFTISRDNAKNTVYLQMNSLKPEDTAVYYCAAPLLRDLRSPYSYNYWGQGTQVTVSS”: the “polyreactivity (PSR sort gate)” value is “low polyreactivity”. Take “QVQLVESGGGLVQAGGSLRLSCAASGSTFHLYAMGWYRQAPGKETEFVPAIRGRGGNTYADSVKGRFTISRDNAKNTVYLQMNSLKPEDTAVYYCAAPLLRDLRSPYSYNYWGQGTQVTVSS”: the “polyreactivity (PSR sort gate)” value is “low polyreactivity”. Under “QVQLVESGGGLVQAGGSLRLSCAASGSTFHLYAMGWYRQAPGKETEIVAAIRGRGGNTYADSVKGRFTISRDNAKHTVYFQMNSLKPEDTAVSYCATSISEYQDFTRYDYWGQGTQVTVSS” stands “low polyreactivity”; under “QVQLVESGGGLVQAGGSLRLSCAASGSTFHNYAMGWYRQAPGKERELVAGISVRGGGTYYADSVKGRFTISRDNAKNTVYLQMNSLKPEDTAVYYCAPDFYWFWTYGTLWYGYEYWGQGTQVTVSS”, “high polyreactivity”. In the case of “QVQLVESGGGLVQAGGSLRLSCAASGSTFHPNAMGWCRQAPRKQRELFAAITWSTSVTYYADSVKGRFTISRDNAKNTVFLQMISLKPEDSAVYYCNAGYMLDSFRYDHWGQCTQVTVSS”, the “polyreactivity (PSR sort gate)” value is “low polyreactivity”. Take “QVQLVESGGGLVQAGGSLRLSCAASGSTFHPYAMGWYRQPPGKASELVAAINWRVGSTYYADSVKGRFTISRDNAKNTVYLQMTSQIPEDTAVYYCAVSYMATLGRSRYDYWGQGTQVTVSS”: the “polyreactivity (PSR sort gate)” value is on record as “low polyreactivity”.

In the case of “QVQLVESGGGLVQAGGSLRLSCAASGSTFHRNAMGWYRQAPGKERELVAAITSGGSTNYADSVKGRFKISRDNAKNTVYLQMNSLKPEDTAVYYCAADEVWGRDLGEYWGQGTQVTVSS”, the “polyreactivity (PSR sort gate)” value is given as “low polyreactivity”.

“QVQLVESGGGLVQAGGSLRLSCAASGSTFHRYAMGWYRQAPGKERELVAAITSSGDITYYADSVKGRFTISRDNAKNTVYLQMNSLKPEDTAVYYCNADGFYSWLYDYWGQGTQVTVSS”: the “polyreactivity (PSR sort gate)” value was “low polyreactivity”. As for “QVQLVESGGGLVQAGGSLRLSCAASGSTFHRYTMGWYRQAPGKERELLAAISWSGGSTYYADSVKGRFTISRDNAKNTVYLQMNSLKPEDTAVYYSNKVTVYRFRGDSWGQGTQVTVSS”, the “polyreactivity (PSR sort gate)” value is given as “high polyreactivity”.

Take “QVQLVESGGGLVQAGGSLRLSCAASGSTFHRYTMGWYRQAPGKERELVAAISSGGRTYYADSVKGRFTISRDNAKNTVYLQMNSLKPEDTAVYYCNSRYPRQYWGGYDYWGQGTQVTVSS”: the “polyreactivity (PSR sort gate)” value is on record as “high polyreactivity”.

As for “QVQLVESGGGLVQAGGSLRLSCAASGSTFHWYAMGWYRQAPGKERELVAAITSGGSTYYADSVKGRFTISRDNAKNTVYLQMNSLKPEDTAVYYCNADRVDSFFDGPSRGYDYWGQGTQVTVSS”, the “polyreactivity (PSR sort gate)” value was “low polyreactivity”. For the sequence “QVQLVESGGGLVQAGGSLRLSCAASGSTFHYAMGWYRPAPGKERELVAAITYGGGRTFYADSVKGRFTISRDNAKNTVYLQMNSLKPEDTAVYYCAKVVYYYGRGWTDYRSTMDSWGQGTQVTVSS”, the “polyreactivity (PSR sort gate)” value is reported as “low polyreactivity”.

Consider “QVQLVESGGGLVQAGGSLRLSCAASGSTFHYYAMGWYRQAPGKERELVAAISKRGGSTYYADSVKGRFTISRDNAKNNVYLQMNSLKPEDTSVYYCAKTWVSYSRYHYEYWGQGTQVTVSS”, for which the “polyreactivity (PSR sort gate)” value is recorded as “high polyreactivity”. With “QVQLVESGGGLVQAGGSLRLSCAASGSTFHYYAMGWYRQAPGKERELVAAISKSGGITYYADSVKGRFTISRDNAKNTVSLQMNSLKPEDTAVYYCNAYSASGYDYWGQGTQVTVSS”, the “polyreactivity (PSR sort gate)” value is recorded as “high polyreactivity”.

In the case of “QVQLVESGGGLVQAGGSLRLSCAASGSTFIAYALGWYRQAPGKERELDAAITTGDSTNYADSVKGRFTISRDNAKNTVYLQMNSLKPEDTAVYYCNADGTDFHFLSEIGSSQEGDYWGQGTQVTVSS”, the “polyreactivity (PSR sort gate)” value is recorded as “low polyreactivity”. Turning to “QVQLVESGGGLVQAGGSLRLSCAASGSTFIDNTMGWYRQAPGKERELVASIRRSGGSTYYADSVKGRFTISRDNAKNTVYLQMNSLKPEDTAVYYCDVATRYHTTFWYYYWGQGTQVTVSS”, the “polyreactivity (PSR sort gate)” value is “high polyreactivity”.

In the case of “QVQLVESGGGLVQAGGSLRLSCAASGSTFIEYAMGWYRQAPGTERELVAGITTSSGRTSYADSVKGRFSISRDNAKNTVYLQMNSLKPEDTAVYYCAADIYYYSPYDSFWYSEVDYWGQGTQVTVSS”, the “polyreactivity (PSR sort gate)” value was “low polyreactivity”. Under “QVQLVESGGGLVQAGGSLRLSCAASGSTFIFNTMGWYRQAPGKEREVVASITGDGRTNYADSVKGRFTISRDNAKNTVYLQMNSLKPEDTAVYYCAADGYDQYPLWAPPGDYWGQGTQVTVSS” stands “low polyreactivity”; under “QVQLVESGGGLVQAGGSLRLSCAASGSTFIFYAMGWYRQAPGKERELVASITSRAASTYYADSVKGRFTFSRDNAKNTVYFQMNSLKPEVTAVYYCAANFSYTLFWWSSFLLYVYWGQGTQVTVSS”, “low polyreactivity”; under “QVQLVESGGGLVQAGGSLRLSCAASGSTFIFYTMGWYRQAPGKERELVAAITSNGGSTYYADSVKGRFTISRDNAKNTVYLQMNSLKPEDTAVYYCARVDRWRRYRYIFSGYDYWGQGTQVTVSS”, “high polyreactivity”. The same measure for “QVQLVESGGGLVQAGGSLRLSCAASGSTFIGYAMGWYRQAPGKERELVAGIRWSGGRTYYADSVKGRFTISRDNAKNTVYLHMNSLKPEDTAVYYCNARFYASAKGYDYWGQGTQVTVSS”: “low polyreactivity”. Take “QVQLVESGGGLVQAGGSLRLSCAASGSTFIGYAMGWYRQAPGKERELVASISWGGGSTYYADSVKGRFTISRDNAKNTVYLQQNSLIPEDTAVYYCNTYYWFSGCPYDYWGQGTQVTVSS”: the “polyreactivity (PSR sort gate)” value is listed as “low polyreactivity”. For the sequence “QVQLVESGGGLVQAGGSLRLSCAASGSTFIGYTMGWYRQAPGKERELVAAISTSGARTYYADSVKGRFTISRDNAKNTVYLQMNSLKPEDTAVYYCAARAIYKSKYDYWGQGTQVTVSS”, the “polyreactivity (PSR sort gate)” value is “high polyreactivity”. As for “QVQLVESGGGLVQAGGSLRLSCAASGSTFILYAMGWYRQAPGKERELVAAITSRGGSTYYADSVKGRFTISRDNAKNTVYLQMNSLKPEDTAVYYCAADNGYIGPKPYFLAYPVGYDSWGQGTQVTVSS”, the “polyreactivity (PSR sort gate)” value is “low polyreactivity”. On to “QVQLVESGGGLVQAGGSLRLSCAASGSTFINYAMGWYRQAPGKERELVAVITSDDGSTYYADSVKGRFTISRDNAKNTVYLQMNSLKPEDTAVYYCAADYYDQRYRPGPWYDYWGQGTQVTVSS”, for which the “polyreactivity (PSR sort gate)” value was “low polyreactivity”. “QVQLVESGGGLVQAGGSLRLSCAASGSTFIPNAMGWYSQAPGKERELVAAISTGGSTNYADSVKGRFTISRDNAKNTVYLQMNSLKPEDTAVYYCNARRGYYNPGRRFYYWGQGTQVTVSS”: the “polyreactivity (PSR sort gate)” value is “low polyreactivity”. Under “QVQLVESGGGLVQAGGSLRLSCAASGSTFIRNAMGWYRQAPGKERELVAAITTDGSTDYADSVKGRFTISRDNAKNTVYLQMNSLKPEDTAVDYCNAEYRLDALSYDYLGQGTQVTVSS” stands “low polyreactivity”; under “QVQLVESGGGLVQAGGSLRLSCAASGSTFIRNTMGWYRQAPGKERELLAAISRSGVRTYYADSVKGRFTISRDNAKNTVYLQINSLKPEDTAVSYCAAVSSLSYSFPYDYWGQGTQVTVST”, “high polyreactivity”; under “QVQLVESGGGLVQAGGSLRLSCAASGSTFIRYAMGWYRQAPGKERELVAAIRRTGASTYYADSVKGRFTISRDNAKNTVYLQMNSLKPEDTAVYYCAARYSIWSWNGLDYWGQGTQVTVSS”, “high polyreactivity”.
